This note sets out measurements from article PMC8292354, “Molecular insights into the endoperoxide formation by Fe(II)/α-KG-dependent oxygenase NvfI” (Nature Communications, 2021).

For one series, the target named is T1, NvfI (Aspergillus novofumigatus, UniProt A0A2I1BSX0).
T1 construct: recombinant from pET28a in E. coli Rosetta 2(DE3) pLysS, Ni-NTA purified, MonoQ and Superdex 200; monomer in solution, apparent 34 kDa
The series can be described thus: X-ray crystal structure, […] Å. The class given is binding. To be noted: bidentate Fe ligand; binary (state I, monomer B) and ternary complex with asnovolin A (state III, monomer A).

Series [1] relates to COC(=O)[C@@H]1C(=O)C(C)=C2O[C@@]3(C[C@]2(C)[C@H]1C)[C@@H](C)CC[C@H]1C(C)(C)OC(=O)CC[C@@]13C. The series can be described thus: purified protein. The conditions noted are these: 50 mM HEPES pH 7.5, 1 μM FeSO4, 500 μM ascorbate, 500 μM α-KG, 30 °C, 2 min, 0.1 μM enzyme.

T1 sequence (A0A2I1BSX0 whole entry): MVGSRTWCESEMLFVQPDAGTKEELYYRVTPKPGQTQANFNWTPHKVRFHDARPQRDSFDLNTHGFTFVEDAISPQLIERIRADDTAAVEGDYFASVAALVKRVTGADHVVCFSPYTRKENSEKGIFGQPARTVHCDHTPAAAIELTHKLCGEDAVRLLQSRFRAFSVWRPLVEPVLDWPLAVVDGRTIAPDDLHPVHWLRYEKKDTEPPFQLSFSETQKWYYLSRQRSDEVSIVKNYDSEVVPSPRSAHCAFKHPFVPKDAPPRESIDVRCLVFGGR

Turning to `O=C(O)CCC(=O)C(=O)O` [α-KG], the “X-ray crystal structure, 1.9 Å” value at NvfI is “octahedral iron-center is coordinated by the bidentate α-KG and a water molecule”.

By Km is commonly meant the concentration of substrate that gives half-maximal velocity. By kcat is commonly meant the maximal rate divided by the concentration of active sites. Consider “NvfI (Aspergillus novofumigatus IBT 16806)”, for which, in series [1], the Km is listed as 25.9 ± 7.2 µM and the kcat is 0.29 ± 0.04 s⁻¹.
